Laboratory results from publication PMC10412585, “High-throughput characterization of HLA-E-presented CD94/NKG2x ligands reveals peptides which modulate NK cell activation” (Nature Communications, 2023).

B1: CD94/NKG2C single-chain fusion protein (human NKG2C ectodomain - GGSGGS - human CD94 ectodomain), produced in Hi5 cells for SPR (receptor)
chain: not shown
notes: also called CD94/NKG2x
B2: CD94/NKG2A single-chain fusion protein (human NKG2A ectodomain - GGSGGS - human CD94 ectodomain), produced in Hi5 cells for SPR (receptor)
chain: not shown
notes: also called CD94/NKG2x

Legend:
[1] = biological target: WN peptide (…) HLA-E single chain trimer (soluble, biotinylated) (human, biotin (AviTag)); test: SPR; steady state, Biacore T200, biotinylated pMHC SCT immobilised at about 400 RU on a Series S SA chip, CD94/NKG2x as analyte 0.1-102.4 μM, 10 μL/min, 25 °C, HBS-EP+; reference HLA-DR401; approximate KD by Biacore software; settings: both partners purified
[2] = biological target: … peptide HLA-E single chain trimer (soluble, biotinylated) (human, biotin (AviTag)); test: SPR; settings: both partners purified

Row | Binder | Kd [1] [µM] | Kd [2] [µM]
1 | B1 | ~17.4 | ~21.4
2 | B2 | ~41.5 | ~8.2
